Target: T1, MHC-1 (MHC class I molecules) on murine dendritic cell line DC2.4 cells (mouse, UniProt P01887 21-119; P01901 22-369)
T1 construct: whole, on cells; also called H-2Kb
T1 sequence (MHC heavy, looked up): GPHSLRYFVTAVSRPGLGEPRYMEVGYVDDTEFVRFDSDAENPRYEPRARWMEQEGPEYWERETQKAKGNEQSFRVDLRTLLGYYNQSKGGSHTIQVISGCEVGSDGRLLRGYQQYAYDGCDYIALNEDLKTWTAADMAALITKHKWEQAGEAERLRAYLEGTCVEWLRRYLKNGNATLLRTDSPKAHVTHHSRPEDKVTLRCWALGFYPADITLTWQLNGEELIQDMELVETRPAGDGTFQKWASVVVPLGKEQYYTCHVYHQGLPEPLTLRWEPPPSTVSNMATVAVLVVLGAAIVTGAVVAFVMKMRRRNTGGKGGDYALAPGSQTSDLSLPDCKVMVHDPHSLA
T1 sequence (b2m, looked up): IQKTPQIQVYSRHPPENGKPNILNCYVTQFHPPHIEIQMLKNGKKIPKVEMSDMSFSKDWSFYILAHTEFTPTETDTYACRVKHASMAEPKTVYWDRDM
Assay: competitive inhibition of OVA peptide 1 binding to MHC-1 on DC2.4 cells, flow cytometry
Method: Murine dendritic cell line, DC2.4 cells, were detached from a dish, and suspended in 1.5 mL tubes at a concentration of 1.5×10⁵ cells per […] of PBS.

binding result: no binding (tested: 2.5 µg/mL)
B1: C-TRP2-9 (cysteine added to the N-terminus of residues 180 to 188 of mTRP2) (peptide)
peptide: CSVYDFFVWL
notes: 10-mer; N-terminal Cys plus mTRP2 180-188; Free peptide in the assay

From US20230144876A1 (UNIVERSITY OF KITAKYUSHU, published 2023)
